Results from US8105799B2, “Methods of screening compounds inhibiting signal transduction through inflammatory cytokines” (Chugai Seiyaku Kabushiki Kaisha, priority 1998, dated 2012).

What was measured:
peritoneal macrophages [1] = test: Cytokine production by LPS-stimulated peritoneal macrophages expressing TAK1-DN; type: cell-based; settings: LPS 10 μg/ml, 24 hours, TAK1-DN Tgm-derived macrophages compared with wild-type mouse-derived macrophages, FIG. 4
Method: (§1) Specifically, 10 ml of ice-cold PBS solution containing 0.36% sodium citrate was injected into the peritoneal cavity of a TAK1-DN-expressing transgenic mouse (TAK1-DN Tgm) or a C57BL/6 mouse (wild-type mouse) of the same weeks of age. The mouse was given a massage for 30 seconds, and then the solution was recovered from the mouse. The solution recovered was centrifuged, and the precipitated cells were resuspended in RPMI1640 (GIBCO-BRL) containing 10% FBS (GIBCO-BRL). The cells were plated in wells at a cell density of 5×10^4/well. The cells were cultured at 37° C. for 2 hours, and floating cells were removed by washing with media. Cells adsorbed on the culture plate were used as peritoneal macrophages.
(§2) LPS, at a final concentration of 10 μg/ml, or IL-1α (Genzyme), at a final concentration of 10 ng/ml, was added to the above-prepared peritoneal macrophages, and the cells were further cultured for 24 hours. The culture supernatant was recovered. Then, the amounts of IL-1β in the culture supernatant of LPS-stimulated macrophages and IL-6 in the culture supernatant of IL-1α-stimulated macrophages were assayed by ELISA kits (Genzyme).

[2] = system: IκBα degradation by proteasome (NFκB activation); test: IκBα degradation in TAK1-DN expressing peritoneal macrophages stimulated by LPS and IL-1α (Western blot); type: cell-based, mouse; settings: 30 and 60 minutes, TAK1-DN Tgm-derived macrophages, FIG. 6
Method: The macrophages derived from wild-type mice and from TAK1-DN Tgm, which were prepared as described above, were stimulated by LPS or IL-1, and the time course of degradation of IκBα by proteasome was monitored (0, 30, and 60 minutes). Specifically, the peritoneal macrophages were cultured in wells of a 96-well plate at a cell density of 1×10^6/well. LPS (1 μg/ml) or IL-1α (10 ng/ml) was added to the culture in the presence or absence of proteasome inhibitor MG132 (40 μM). The cells were harvested after 30 or 60 minutes.
The cells were washed with PBS (−), and then a lysis buffer was added thereto for the preparation of cell lysate. An aliquot of each lysate corresponding to about 2×10^5 cells was subjected to gel electrophoresis by 9% SDS-PAGE. The fractionated proteins were blotted onto a nitrocellulose membrane and then incubated with anti-IκBα antibody (SantaCruz) as a primary antibody for 1.5 hours. After wash, horseradish peroxidase-conjugated goat anti-rabbit antibody was used as a secondary antibody. After the reaction of the secondary antibody, the reaction product was detected by using ECL (Amersham).

peritoneal macrophages [3] = test: IL-6 production by IL-1α-stimulated peritoneal macrophages expressing TAK1-DN; type: cell-based; settings: IL-1α 10 ng/ml, 24 hours; TAK1-DN Tgm-derived macrophages compared with wild-type mouse-derived macrophages; ELISA; FIG. 5
Method: as §1, §2

TAB1 = biological target: T1, TAB1 (Homo sapiens, UniProt Q15750); test: Animal cell two-hybrid assay in CHO cells (luciferase reporter); type: cell-based, hamster; settings: pM-TAK1DN with pVP16-C68 (TAB1C68), 72 hours, FIG. 7
T1 construct: expressed in transfected cells; host or cells: CHO cells transfected with pVP16-C68
T1 sequence (Q15750 437-504): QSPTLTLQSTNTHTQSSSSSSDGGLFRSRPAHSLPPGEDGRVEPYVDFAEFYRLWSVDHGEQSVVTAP
From the text: The animal cell two-hybrid system (Dang et al., (1991) Mol. Cell. Biol. 11, 954-962) using TAB1 peptide and TAK1 peptide was used to analyze whether or not a peptide (TAK1-DN) from Glu at amino acid 77 to Gln at amino acid 303 in the TAK1 peptide of SEQ ID NO: 2 is capable of inhibiting the binding between TAK1 peptide and TAB1 peptide and further capable of inhibiting TAK1 peptide activation in animal cells.
First, each of genes encoding full-length TAK1 and TAK1-DN was ligated with the gene encoding GAL4 DNA-binding domain (GAL4-BD) to prepare an expression vector. The gene encoding full-length TAK1 was obtained from yeast two-hybrid expression plasmid pBTMHu11F (Shibuya H. et al., (1996) 272, 1179-1182) by digesting it with restriction enzymes EcoRI and PstI. Subsequently, the gene was ligated between EcoRI and PstI sites of an expression vector pM (CLONTECH) containing the GAL4-BD gene to obtain an animal cell two-hybrid expression plasmid pM-TAK1. […]
The culture further continued for 72 hours, and then luciferase activities in each cell extract were assayed by using Dual-Luciferase™ Reporter Assay System (Promega). […] The efficiency of gene introduction was normalized by using measured values for the activity of Renilla luciferase derived from the introduced pRL-SV40.

- luciferase activity (binding to TAB1) (TAB1): capable of binding to TAB1
B1: TAK1-DN: TAB1-binding region of TAK1, amino acid 77 Glu to amino acid 303 Gln of SEQ ID NO: 2; dominant negative inhibitor (protein, listed as Homo sapiens)
chain: ELRQLSRVNHPNIVKLYGACLNPVCLVMEYAEGGSLYNVLHGAEPLPYYTAAHAMSWCLQCSQGVAYLHSMQPKALIHRDLKPPNLLLVAGGTVLKICDFGTACDIQTHMTNNKGSAAWMAPEVFEGSNYSEKCDVFSWGIILWEVITRRKPFDEIGGPAFRIMWAVHNGTRPPLIKNLPKPIESLMTRCWSKDPSQRPSMEEIVKIMTHLMRYFPGADEPLQYPCQ
- induction of production of IL-1β (peritoneal macrophages [1]; ELISA): significantly inhibited
- induction of production of IL-6 (peritoneal macrophages [1]): significantly inhibited
- induction of production of TNF (peritoneal macrophages [1]): significantly inhibited
- degradation of IκBα ([2]; IL-1α 10 ng/ml): no remarkable degradation of IκBα
- degradation of IκBα ([2]; LPS 1 μg/ml): no remarkable degradation of IκBα
- induction of IL-6 production by IL-1 stimulation (peritoneal macrophages [3]): significantly inhibited
